7 sequences from the supplement of paper PMC10567573 can be followed below.

A short description of this series: protein stability index of a GFP-peptide fusion (GPS, HEK-293T) (PSI 1-6); higher = more stable. Particulars: c terminus: a fixed tail appended.

± gives the standard deviation.
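Further: 24-mer peptide tiles fused after GFP, lentivirally expressed, FACS-sorted into six equal bins by GFP/DsRed ratio, decoded by Illumina sequencing, PSI is the read-weighted mean bin number.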

As for LTLKVLRSSSCGDTELLGQATLPV [C2CD2L], the protein stability index reads like this: (treatment: DMSO) 2.16 ± 0.73; (treatment: MLN4924 1 uM, 8 h) 2.33 ± 0.34.

In the case of KVLQLTVRCEALTGELETLKERCA [CCDC89], the protein stability index is, setting by setting: (treatment: DMSO) 2.28 ± 0.21; (treatment: MLN4924 1 uM, 8 h) 2.45 ± 0.27.

For the sequence DKERFTTLVQDLANAFQQEAQTSG [CHIT1], the protein stability index is 4.19 ± 0.066 (treatment: DMSO) and 4.26 ± 0.12 (treatment: MLN4924 1 uM, 8 h).

Turning to GGQRSTPLIIAARNGHAKVVRLLL [FEM1B], the protein stability index amounted to 2.16 ± 0.2 (treatment: DMSO) and 2.23 ± 0.44 (treatment: MLN4924 1 uM, 8 h).

With WNPDARYSEHFLQEAKLLHWNGRH [GLT8D2], the protein stability index runs as follows: (treatment: DMSO) 2.81 ± 0.21; (treatment: MLN4924 1 uM, 8 h) 2.67 ± 0.27.

INSIIHNPRAPVIIYKQTKGGVQN [CEP70]: the protein stability index (treatment: DMSO) is 2.86 ± 0.43 and the protein stability index (treatment: MLN4924 1 uM, 8 h) stood at 3.34 ± 0.51.

With PPRGPLGQGAMFRLPTDSHFPYDL [NEUROD6], the protein stability index reads like this: (treatment: DMSO) 3.46 ± 0.18; (treatment: MLN4924 1 uM, 8 h) 3.59 ± 0.38.
